Assay results published in patent CN109678957A.

Molecular target: 人重组TSLP蛋白 (recombinant human TSLP protein from E. coli GDMCC No:60083) (human) (UniProt Q969D9)
Experiment: ELISA, dilution series of the antibody on TSLP antigen protein (Fig. 4)

Chain of UniProt Q969D9 (Q969D9 29-159 limits assumed): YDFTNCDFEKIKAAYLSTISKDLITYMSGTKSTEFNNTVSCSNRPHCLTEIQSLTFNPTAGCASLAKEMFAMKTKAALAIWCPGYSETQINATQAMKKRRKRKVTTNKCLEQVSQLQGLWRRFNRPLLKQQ

B1: 抗人TSLP单克隆抗体 (anti-human TSLP monoclonal antibody, from hybridoma ascites, Example 3) (antibody, IgG1, V domains shown)
VH: QIQLVQSGPELKKPGETVKISCKASGYTFTNYGMNWVKQAPGKGLKWMGWINTYTGEPTYADDFKGRFAFSLETSASTAYLQINNLKNEDMATYFCARGLTGTRGRFAYWGQGTLVTVSA
VL: DIVMTQSHKFMSTSVGDRVSITCKASQDVSTAVAWYQQKPGQSPKLLIYWASTRHTGVPDRFTGSGSGTDYTLTISSVQAEDLALYYCQQHYSTPPTFGGGTKLEIK
How did the 效价 (titer, dilution fold at which OD is more than 2 times the negative control) (倍 (dilution fold)) turn out when B1 was run?
Its 效价 (titer, dilution fold at which OD is more than 2 times the negative control) (倍 (dilution fold)) is 655000.
